# Values of other authors in article PMC3867676.
# pKd: −log10 of the molar value.
# Experiments:
# [1] = molecular target: RANKL (Homo sapiens) (UniProt O14788)
# [2] = molecular target: TRAIL (Homo sapiens) (UniProt P50591)
# Chain of UniProt P50591 (P50591 whole entry): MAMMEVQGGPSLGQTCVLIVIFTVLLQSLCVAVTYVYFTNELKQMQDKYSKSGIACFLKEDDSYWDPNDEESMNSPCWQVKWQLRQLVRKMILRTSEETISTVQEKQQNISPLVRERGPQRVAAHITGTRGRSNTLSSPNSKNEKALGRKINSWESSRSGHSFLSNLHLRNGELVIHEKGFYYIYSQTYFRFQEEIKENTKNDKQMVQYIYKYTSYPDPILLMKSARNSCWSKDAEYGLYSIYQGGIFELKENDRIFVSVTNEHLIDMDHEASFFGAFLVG
# Chain of UniProt O14788 (O14788 140-317): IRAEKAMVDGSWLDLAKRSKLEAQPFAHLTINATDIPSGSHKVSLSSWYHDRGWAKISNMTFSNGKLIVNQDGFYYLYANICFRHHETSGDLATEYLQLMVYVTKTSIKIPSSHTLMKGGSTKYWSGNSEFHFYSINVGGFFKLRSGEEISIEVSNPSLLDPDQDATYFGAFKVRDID
substance,measurement,setting,value
OPG (from UniProt O00300),pKd,[1],7.64
same,pKd,[2],7.35
